Values belong to the binder of their own block, whether it stands above or below them.
What was measured:
[1] = target: coagulation factor X, P00742
[2] = target: T1, coagulation factor VIIa (UniProt P08709 61-466, Gla (gamma-carboxyglutamate) domain mentioned; positions not given); test: TF-dependent enhancement of factor VIIa enzymatic activity as readout for complex formation
T1 construct: also called FVIIa
T1 sequence (looked up): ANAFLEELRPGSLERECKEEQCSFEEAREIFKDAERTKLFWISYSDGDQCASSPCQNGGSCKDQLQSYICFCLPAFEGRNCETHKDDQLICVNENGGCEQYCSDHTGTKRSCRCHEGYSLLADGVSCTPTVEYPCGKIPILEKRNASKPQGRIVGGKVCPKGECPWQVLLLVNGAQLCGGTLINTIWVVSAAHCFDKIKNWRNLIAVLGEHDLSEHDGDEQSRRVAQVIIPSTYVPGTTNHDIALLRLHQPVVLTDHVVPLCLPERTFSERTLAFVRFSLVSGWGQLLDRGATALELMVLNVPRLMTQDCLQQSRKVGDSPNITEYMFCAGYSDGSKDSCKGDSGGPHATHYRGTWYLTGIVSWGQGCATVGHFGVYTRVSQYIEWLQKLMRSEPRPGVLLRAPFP

[3] = target: T1, coagulation factor VIIa; test: apparent Kd; TF-dependent enhancement of factor VIIa enzymatic activity as readout for complex formation
[4] = target: T1, coagulation factor VIIa; test: listed in Table 2 of binding constants for TF:VIIa complexes; method for this row not stated
[5] = target: T2, coagulation factor X (UniProt P00742 41-488, Gla (gamma-carboxyglutamate) domain mentioned; positions not given); test: SPR (Biacore 3000), Nanodiscs immobilized on NTA chip via His tag of MSP1, factor X flowed over
T2 construct: Substrate of the TF:VIIa complex
T2 sequence (P00742 41-488 limits assumed): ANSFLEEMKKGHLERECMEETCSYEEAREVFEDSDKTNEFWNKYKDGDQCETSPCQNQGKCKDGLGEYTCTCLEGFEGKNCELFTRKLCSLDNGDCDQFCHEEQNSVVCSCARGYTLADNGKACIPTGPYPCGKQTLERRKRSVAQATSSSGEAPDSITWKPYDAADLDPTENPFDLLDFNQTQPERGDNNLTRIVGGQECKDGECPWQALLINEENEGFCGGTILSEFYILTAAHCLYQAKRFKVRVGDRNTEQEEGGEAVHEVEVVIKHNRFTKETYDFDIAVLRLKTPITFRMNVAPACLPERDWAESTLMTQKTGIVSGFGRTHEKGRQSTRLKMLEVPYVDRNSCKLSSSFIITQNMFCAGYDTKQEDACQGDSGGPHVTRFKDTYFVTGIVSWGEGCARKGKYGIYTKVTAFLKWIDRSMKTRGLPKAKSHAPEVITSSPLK

coagulation factor X, P00742, sequence (P00742 whole entry, looked up): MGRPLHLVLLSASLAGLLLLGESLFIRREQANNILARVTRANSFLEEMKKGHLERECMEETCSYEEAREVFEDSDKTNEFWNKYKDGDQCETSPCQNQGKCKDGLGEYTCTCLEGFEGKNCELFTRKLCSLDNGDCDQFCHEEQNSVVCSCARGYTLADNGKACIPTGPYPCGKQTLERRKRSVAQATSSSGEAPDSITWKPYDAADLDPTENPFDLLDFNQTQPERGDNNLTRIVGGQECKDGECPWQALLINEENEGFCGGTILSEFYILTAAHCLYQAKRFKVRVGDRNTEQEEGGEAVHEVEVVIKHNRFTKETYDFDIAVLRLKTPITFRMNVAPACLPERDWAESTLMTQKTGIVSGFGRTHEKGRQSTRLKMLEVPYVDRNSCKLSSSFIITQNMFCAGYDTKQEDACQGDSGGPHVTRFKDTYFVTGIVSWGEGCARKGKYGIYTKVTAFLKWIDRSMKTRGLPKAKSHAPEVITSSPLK

B1: rTF:VIIa complex on PCPS vesicles (TF-liposomes, 20% PS, 80% PC) (protein)
chain 1: AEDQVDPRLIDGKSGTTNTVAAYNLTWKSTNFKTILEWEPKPVNQVYTVQISTKSGDWKSKCFYTTDTECDLTDEIVKDVKQTYLARVFSYPAGNVESTGSAGEPLYENSPEFTPYLETNLGQPTIQSFEQVGTKVNVTVEDERTLVRRNNTFLSLRDVFGKDLIYTLYYWKSSSSGKKTAKTNTNEFLIDVDKGENYCFSVQAVIPSRTVNRKSTDSPVECMGQEKGEFREIFYIIGAVVFVVIILVIILAISLHK
chain 2: ANAFLEELRPGSLERECKEEQCSFEEAREIFKDAERTKLFWISYSDGDQCASSPCQNGGSCKDQLQSYICFCLPAFEGRNCETHKDDQLICVNENGGCEQYCSDHTGTKRSCRCHEGYSLLADGVSCTPTVEYPCGKIPILEKRNASKPQGRIVGGKVCPKGECPWQVLLLVNGAQLCGGTLINTIWVVSAAHCFDKIKNWRNLIAVLGEHDLSEHDGDEQSRRVAQVIIPSTYVPGTTNHDIALLRLHQPVVLTDHVVPLCLPERTFSERTLAFVRFSLVSGWGQLLDRGATALELMVLNVPRLMTQDCLQQSRKVGDSPNITEYMFCAGYSDGSKDSCKGDSGGPHATHYRGTWYLTGIVSWGQGCATVGHFGVYTRVSQYIEWLQKLMRSEPRPGVLLRAPFP
Km (factor X activation by TF:VIIa) [1]: 0.0202 µM | Km, app (factor X activation by rTF:VIIa) [1]: 0.0202 µM

B2: rTF:VIIa complex on rTF-PCPS-nanoscale discs (TF-Nanodiscs 20% PS, 80% PC) (protein)
chain 1: AEDQVDPRLIDGKSGTTNTVAAYNLTWKSTNFKTILEWEPKPVNQVYTVQISTKSGDWKSKCFYTTDTECDLTDEIVKDVKQTYLARVFSYPAGNVESTGSAGEPLYENSPEFTPYLETNLGQPTIQSFEQVGTKVNVTVEDERTLVRRNNTFLSLRDVFGKDLIYTLYYWKSSSSGKKTAKTNTNEFLIDVDKGENYCFSVQAVIPSRTVNRKSTDSPVECMGQEKGEFREIFYIIGAVVFVVIILVIILAISLHK
chain 2: ANAFLEELRPGSLERECKEEQCSFEEAREIFKDAERTKLFWISYSDGDQCASSPCQNGGSCKDQLQSYICFCLPAFEGRNCETHKDDQLICVNENGGCEQYCSDHTGTKRSCRCHEGYSLLADGVSCTPTVEYPCGKIPILEKRNASKPQGRIVGGKVCPKGECPWQVLLLVNGAQLCGGTLINTIWVVSAAHCFDKIKNWRNLIAVLGEHDLSEHDGDEQSRRVAQVIIPSTYVPGTTNHDIALLRLHQPVVLTDHVVPLCLPERTFSERTLAFVRFSLVSGWGQLLDRGATALELMVLNVPRLMTQDCLQQSRKVGDSPNITEYMFCAGYSDGSKDSCKGDSGGPHATHYRGTWYLTGIVSWGQGCATVGHFGVYTRVSQYIEWLQKLMRSEPRPGVLLRAPFP
chain 3: MGHHHHHHIEGRLKLLDNWDSVTSTFSKLREQLGPVTQEFWDNLEKETEGLRQEMSKDLEEVKAKVQPYLDDFQKKWQEEMELYRQKVEPLRAELQEGARQKLHELQEKLSPLGEEMRDRARAHVDALRTHLAPYSDELRQRLAARLEALKENGGARLAEYHAKATEHLSTLSEKAKPALEDLRQGLLPVLESFKVSFLSALEEYTKKLNTQ
Km (factor X activation by TF:VIIa) [1]: 0.0686 µM | Km, app (factor X activation by rTF:VIIa) [1]: 0.0686 µM

B3: TF:VIIa complex on TF-Nanodiscs 30% PS, 70% PC (protein)
chain 1: AEDQVDPRLIDGKSGTTNTVAAYNLTWKSTNFKTILEWEPKPVNQVYTVQISTKSGDWKSKCFYTTDTECDLTDEIVKDVKQTYLARVFSYPAGNVESTGSAGEPLYENSPEFTPYLETNLGQPTIQSFEQVGTKVNVTVEDERTLVRRNNTFLSLRDVFGKDLIYTLYYWKSSSSGKKTAKTNTNEFLIDVDKGENYCFSVQAVIPSRTVNRKSTDSPVECMGQEKGEFREIFYIIGAVVFVVIILVIILAISLHK
chain 2: ANAFLEELRPGSLERECKEEQCSFEEAREIFKDAERTKLFWISYSDGDQCASSPCQNGGSCKDQLQSYICFCLPAFEGRNCETHKDDQLICVNENGGCEQYCSDHTGTKRSCRCHEGYSLLADGVSCTPTVEYPCGKIPILEKRNASKPQGRIVGGKVCPKGECPWQVLLLVNGAQLCGGTLINTIWVVSAAHCFDKIKNWRNLIAVLGEHDLSEHDGDEQSRRVAQVIIPSTYVPGTTNHDIALLRLHQPVVLTDHVVPLCLPERTFSERTLAFVRFSLVSGWGQLLDRGATALELMVLNVPRLMTQDCLQQSRKVGDSPNITEYMFCAGYSDGSKDSCKGDSGGPHATHYRGTWYLTGIVSWGQGCATVGHFGVYTRVSQYIEWLQKLMRSEPRPGVLLRAPFP
chain 3: MGHHHHHHIEGRLKLLDNWDSVTSTFSKLREQLGPVTQEFWDNLEKETEGLRQEMSKDLEEVKAKVQPYLDDFQKKWQEEMELYRQKVEPLRAELQEGARQKLHELQEKLSPLGEEMRDRARAHVDALRTHLAPYSDELRQRLAARLEALKENGGARLAEYHAKATEHLSTLSEKAKPALEDLRQGLLPVLESFKVSFLSALEEYTKKLNTQ
Km (factor X activation by TF:VIIa) [1]: 0.0452 µM

B4: TF:VIIa complex on TF-Nanodiscs 10% PS, 90% PC (protein)
chain 1: AEDQVDPRLIDGKSGTTNTVAAYNLTWKSTNFKTILEWEPKPVNQVYTVQISTKSGDWKSKCFYTTDTECDLTDEIVKDVKQTYLARVFSYPAGNVESTGSAGEPLYENSPEFTPYLETNLGQPTIQSFEQVGTKVNVTVEDERTLVRRNNTFLSLRDVFGKDLIYTLYYWKSSSSGKKTAKTNTNEFLIDVDKGENYCFSVQAVIPSRTVNRKSTDSPVECMGQEKGEFREIFYIIGAVVFVVIILVIILAISLHK
chain 2: ANAFLEELRPGSLERECKEEQCSFEEAREIFKDAERTKLFWISYSDGDQCASSPCQNGGSCKDQLQSYICFCLPAFEGRNCETHKDDQLICVNENGGCEQYCSDHTGTKRSCRCHEGYSLLADGVSCTPTVEYPCGKIPILEKRNASKPQGRIVGGKVCPKGECPWQVLLLVNGAQLCGGTLINTIWVVSAAHCFDKIKNWRNLIAVLGEHDLSEHDGDEQSRRVAQVIIPSTYVPGTTNHDIALLRLHQPVVLTDHVVPLCLPERTFSERTLAFVRFSLVSGWGQLLDRGATALELMVLNVPRLMTQDCLQQSRKVGDSPNITEYMFCAGYSDGSKDSCKGDSGGPHATHYRGTWYLTGIVSWGQGCATVGHFGVYTRVSQYIEWLQKLMRSEPRPGVLLRAPFP
chain 3: MGHHHHHHIEGRLKLLDNWDSVTSTFSKLREQLGPVTQEFWDNLEKETEGLRQEMSKDLEEVKAKVQPYLDDFQKKWQEEMELYRQKVEPLRAELQEGARQKLHELQEKLSPLGEEMRDRARAHVDALRTHLAPYSDELRQRLAARLEALKENGGARLAEYHAKATEHLSTLSEKAKPALEDLRQGLLPVLESFKVSFLSALEEYTKKLNTQ
Km (factor X activation by TF:VIIa) [1]: 0.132 µM

Kd [2]: 26.4 pM | Kd [3]: 26.4 pM
B5: rTF in PCPS vesicles (20 mol % PS, 80 mol % PC; PL:rTF 8700:1) (receptor)
chain: AEDQVDPRLIDGKSGTTNTVAAYNLTWKSTNFKTILEWEPKPVNQVYTVQISTKSGDWKSKCFYTTDTECDLTDEIVKDVKQTYLARVFSYPAGNVESTGSAGEPLYENSPEFTPYLETNLGQPTIQSFEQVGTKVNVTVEDERTLVRRNNTFLSLRDVFGKDLIYTLYYWKSSSSGKKTAKTNTNEFLIDVDKGENYCFSVQAVIPSRTVNRKSTDSPVECMGQEKGEFREIFYIIGAVVFVVIILVIILAISLHK
notes: Recombinant truncated human tissue factor from E. coli (not glycosylated), reconstituted into PCPS liposomes by the Bio-Bead method; also called TF-liposomes; rTF in phospholipid vesicles

Kd [4]: ~3000 pM
B6: soluble tissue factor (extracellular domain of TF) (receptor, UniProt P13726 33-251, looked up)
chain: SGTTNTVAAYNLTWKSTNFKTILEWEPKPVNQVYTVQISTKSGDWKSKCFYTTDTECDLTDEIVKDVKQTYLARVFSYPAGNVESTGSAGEPLYENSPEFTPYLETNLGQPTIQSFEQVGTKVNVTVEDERTLVRRNNTFLSLRDVFGKDLIYTLYYWKSSSSGKKTAKTNTNEFLIDVDKGENYCFSVQAVIPSRTVNRKSTDSPVECMGQEKGEFRE
notes: extracellular domain; also called sTF

binding result [5]: no binding (tested: 1 µM)
B7: Nanodiscs containing 100% POPC (no TF) (other)
chain: MGHHHHHHIEGRLKLLDNWDSVTSTFSKLREQLGPVTQEFWDNLEKETEGLRQEMSKDLEEVKAKVQPYLDDFQKKWQEEMELYRQKVEPLRAELQEGARQKLHELQEKLSPLGEEMRDRARAHVDALRTHLAPYSDELRQRLAARLEALKENGGARLAEYHAKATEHLSTLSEKAKPALEDLRQGLLPVLESFKVSFLSALEEYTKKLNTQ
notes: Control discs immobilized on an NTA Biacore chip; Their only protein is MSP1; also called POPC Nanodiscs

From patent US20090047356A1 (published 2009)
